This series deals with VLDL (apolipoprotein B-100 containing) (Homo sapiens) (UniProt P04114). Kind of series: EMSA. The settings on record: LDL has greater affinity.
UniProt P04114, sequence (P04114 28-4563): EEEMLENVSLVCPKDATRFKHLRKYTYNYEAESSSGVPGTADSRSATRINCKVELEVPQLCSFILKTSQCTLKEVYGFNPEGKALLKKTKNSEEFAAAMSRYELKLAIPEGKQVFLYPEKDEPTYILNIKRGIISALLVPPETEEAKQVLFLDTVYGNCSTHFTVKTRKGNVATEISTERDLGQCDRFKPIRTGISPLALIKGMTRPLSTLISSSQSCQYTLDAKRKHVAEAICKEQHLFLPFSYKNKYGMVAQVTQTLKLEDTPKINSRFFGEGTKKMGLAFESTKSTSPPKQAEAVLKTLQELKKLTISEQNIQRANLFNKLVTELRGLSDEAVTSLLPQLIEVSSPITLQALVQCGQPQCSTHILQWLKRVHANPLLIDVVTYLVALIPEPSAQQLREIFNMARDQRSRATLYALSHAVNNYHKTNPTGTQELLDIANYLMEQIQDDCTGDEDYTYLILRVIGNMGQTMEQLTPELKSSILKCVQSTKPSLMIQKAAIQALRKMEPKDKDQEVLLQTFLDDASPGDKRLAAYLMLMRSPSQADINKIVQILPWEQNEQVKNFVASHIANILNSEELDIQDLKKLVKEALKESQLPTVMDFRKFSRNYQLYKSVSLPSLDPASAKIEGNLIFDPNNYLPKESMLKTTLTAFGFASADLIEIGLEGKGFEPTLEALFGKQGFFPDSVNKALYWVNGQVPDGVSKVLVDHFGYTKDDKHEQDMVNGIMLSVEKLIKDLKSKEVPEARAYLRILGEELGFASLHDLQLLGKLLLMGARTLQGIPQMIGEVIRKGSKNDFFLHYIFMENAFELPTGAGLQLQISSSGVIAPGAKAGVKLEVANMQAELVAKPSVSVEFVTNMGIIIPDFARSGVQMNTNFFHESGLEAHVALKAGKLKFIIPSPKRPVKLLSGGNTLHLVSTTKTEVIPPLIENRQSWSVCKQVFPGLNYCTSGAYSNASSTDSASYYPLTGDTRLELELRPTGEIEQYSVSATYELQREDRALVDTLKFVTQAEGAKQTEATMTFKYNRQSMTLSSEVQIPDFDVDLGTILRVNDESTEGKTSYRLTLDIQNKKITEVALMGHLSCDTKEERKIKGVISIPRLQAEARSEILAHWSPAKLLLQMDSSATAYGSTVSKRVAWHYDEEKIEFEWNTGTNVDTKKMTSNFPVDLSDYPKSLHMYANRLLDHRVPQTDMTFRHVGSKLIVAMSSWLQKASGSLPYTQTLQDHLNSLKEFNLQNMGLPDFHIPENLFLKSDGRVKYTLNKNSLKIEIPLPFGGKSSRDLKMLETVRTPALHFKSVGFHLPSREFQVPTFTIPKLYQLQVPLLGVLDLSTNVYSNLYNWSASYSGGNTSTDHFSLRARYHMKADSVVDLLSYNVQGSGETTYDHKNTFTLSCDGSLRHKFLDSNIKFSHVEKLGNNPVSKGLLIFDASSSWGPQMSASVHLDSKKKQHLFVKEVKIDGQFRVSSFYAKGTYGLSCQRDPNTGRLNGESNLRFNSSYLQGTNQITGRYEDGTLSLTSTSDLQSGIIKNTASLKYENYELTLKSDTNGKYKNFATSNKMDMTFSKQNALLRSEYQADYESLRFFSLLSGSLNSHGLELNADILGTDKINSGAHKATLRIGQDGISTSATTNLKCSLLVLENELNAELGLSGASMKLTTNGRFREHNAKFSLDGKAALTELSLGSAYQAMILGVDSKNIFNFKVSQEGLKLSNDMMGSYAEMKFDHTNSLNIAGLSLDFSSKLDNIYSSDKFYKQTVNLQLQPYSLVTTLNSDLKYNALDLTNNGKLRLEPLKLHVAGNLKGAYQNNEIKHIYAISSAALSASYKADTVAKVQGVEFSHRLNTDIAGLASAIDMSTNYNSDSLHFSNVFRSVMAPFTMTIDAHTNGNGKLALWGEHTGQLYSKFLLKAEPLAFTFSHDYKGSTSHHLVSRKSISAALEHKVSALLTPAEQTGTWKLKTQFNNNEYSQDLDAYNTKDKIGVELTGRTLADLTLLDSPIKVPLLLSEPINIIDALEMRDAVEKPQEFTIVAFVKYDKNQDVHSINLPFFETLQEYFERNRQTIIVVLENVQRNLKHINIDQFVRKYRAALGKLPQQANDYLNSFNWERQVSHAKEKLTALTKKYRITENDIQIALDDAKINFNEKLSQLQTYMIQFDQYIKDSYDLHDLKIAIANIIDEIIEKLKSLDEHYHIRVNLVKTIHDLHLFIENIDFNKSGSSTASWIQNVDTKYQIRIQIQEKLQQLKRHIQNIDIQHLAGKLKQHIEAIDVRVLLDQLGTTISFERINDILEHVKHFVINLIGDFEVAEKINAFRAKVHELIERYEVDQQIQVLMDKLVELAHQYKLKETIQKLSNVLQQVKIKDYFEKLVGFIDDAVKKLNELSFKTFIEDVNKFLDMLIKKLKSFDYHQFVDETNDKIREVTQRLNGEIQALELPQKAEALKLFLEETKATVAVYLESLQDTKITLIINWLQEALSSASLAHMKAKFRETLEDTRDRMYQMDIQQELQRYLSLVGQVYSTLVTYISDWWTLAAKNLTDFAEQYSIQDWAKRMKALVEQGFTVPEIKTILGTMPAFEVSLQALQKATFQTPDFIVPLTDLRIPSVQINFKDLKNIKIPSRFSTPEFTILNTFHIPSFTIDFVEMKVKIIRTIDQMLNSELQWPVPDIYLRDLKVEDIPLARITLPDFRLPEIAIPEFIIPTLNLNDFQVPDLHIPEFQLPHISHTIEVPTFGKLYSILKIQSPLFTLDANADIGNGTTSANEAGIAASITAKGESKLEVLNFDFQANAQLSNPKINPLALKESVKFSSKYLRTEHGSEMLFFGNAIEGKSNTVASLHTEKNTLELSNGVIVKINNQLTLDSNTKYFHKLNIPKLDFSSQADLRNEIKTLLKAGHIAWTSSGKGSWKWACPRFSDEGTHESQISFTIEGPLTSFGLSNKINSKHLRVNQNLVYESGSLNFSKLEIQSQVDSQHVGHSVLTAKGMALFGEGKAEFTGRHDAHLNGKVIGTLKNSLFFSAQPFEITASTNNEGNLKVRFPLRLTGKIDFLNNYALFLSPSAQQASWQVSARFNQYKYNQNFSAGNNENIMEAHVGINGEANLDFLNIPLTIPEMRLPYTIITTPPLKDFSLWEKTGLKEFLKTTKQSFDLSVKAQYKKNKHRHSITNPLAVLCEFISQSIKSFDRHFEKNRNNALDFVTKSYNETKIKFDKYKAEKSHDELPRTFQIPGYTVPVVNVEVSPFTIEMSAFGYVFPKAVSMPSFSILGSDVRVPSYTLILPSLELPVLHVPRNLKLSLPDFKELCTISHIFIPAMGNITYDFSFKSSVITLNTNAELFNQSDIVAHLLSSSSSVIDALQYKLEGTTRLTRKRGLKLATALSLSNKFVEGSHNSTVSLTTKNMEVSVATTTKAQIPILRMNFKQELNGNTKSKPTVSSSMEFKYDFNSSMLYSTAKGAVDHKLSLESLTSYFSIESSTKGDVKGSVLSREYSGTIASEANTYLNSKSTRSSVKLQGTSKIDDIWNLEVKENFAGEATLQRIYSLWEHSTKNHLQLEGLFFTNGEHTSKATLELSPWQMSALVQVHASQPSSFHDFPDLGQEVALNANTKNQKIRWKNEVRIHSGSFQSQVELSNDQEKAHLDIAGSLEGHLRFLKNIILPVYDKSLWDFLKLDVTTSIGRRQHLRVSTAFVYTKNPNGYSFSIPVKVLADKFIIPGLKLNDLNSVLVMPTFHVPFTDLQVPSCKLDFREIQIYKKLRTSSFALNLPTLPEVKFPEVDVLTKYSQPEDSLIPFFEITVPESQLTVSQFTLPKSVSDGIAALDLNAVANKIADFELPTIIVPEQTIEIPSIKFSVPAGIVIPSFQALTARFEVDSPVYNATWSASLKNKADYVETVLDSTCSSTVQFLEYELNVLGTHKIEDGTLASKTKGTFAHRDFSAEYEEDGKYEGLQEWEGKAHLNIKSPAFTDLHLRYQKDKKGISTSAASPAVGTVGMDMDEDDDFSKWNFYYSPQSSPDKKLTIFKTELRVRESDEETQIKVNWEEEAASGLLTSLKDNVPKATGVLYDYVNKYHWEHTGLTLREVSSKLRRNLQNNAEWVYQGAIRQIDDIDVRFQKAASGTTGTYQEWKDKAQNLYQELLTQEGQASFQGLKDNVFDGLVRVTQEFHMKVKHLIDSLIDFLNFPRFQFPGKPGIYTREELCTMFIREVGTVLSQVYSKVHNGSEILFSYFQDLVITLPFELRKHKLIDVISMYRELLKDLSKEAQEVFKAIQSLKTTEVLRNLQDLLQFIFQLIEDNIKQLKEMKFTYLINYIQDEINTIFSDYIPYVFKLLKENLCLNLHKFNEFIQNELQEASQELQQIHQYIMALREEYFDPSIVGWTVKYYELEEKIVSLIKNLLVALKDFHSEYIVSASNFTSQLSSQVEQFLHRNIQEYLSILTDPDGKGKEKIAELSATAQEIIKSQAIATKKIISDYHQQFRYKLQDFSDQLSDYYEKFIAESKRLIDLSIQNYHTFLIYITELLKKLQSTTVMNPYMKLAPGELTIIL

Turning to SRE oligonucleotide, the binding signal (% of total labeled DNA) was < 1.

Turning to “E/C oligonucleotide (E-box CANNTG and CCAAT)”, the binding signal (% of total labeled DNA) was < 1.

(Values after patent publication US20050096288.)
